According to patent publication US20260137799A1, “ANTI-MUC1* ANTIBODY DRUG COMPLEXES AND USES THEREOF” (Minerva Biotechnologies Corporation, priority 2023, published 2026):

Columns and labels:
lung cancer specimens = assay: IHC of tissue microarray, lung cancer; type: binding, human; conditions: 108 specimens, antibodies at 15 μg/mL
Text: (§1) Tissue microarrays are typically made up of hundreds of tissue specimens, where each specimen in the array comes from a different patient. The breast cancer array contained patient specimens of all types of invasive breast cancers, including less common forms such as carcinomas with medullary features and papillary carcinomas. The lung cancer array contained specimens from patients diagnosed with squamous cell carcinoma, adenocarcinoma, mucinous adenocarcinoma, adenosquamous carcinoma and large cell carcinoma. The pancreatic cancer tissue microarray contained specimens from patients with ductal adenocarcinomas.
Of the 108 lung cancer specimens, a total of 61 stained positive with C2, 3C2B1, or both. […] The converse, C2 staining better than 3C2B1, was true in only 5 of the 108 specimens, and these specimens stained weakly with both antibodies. A total of 37 specimens were stained essentially the same with 3C2B1 and C2 antibody.
(§2) Cancerous tissue arrays were purchased from Tissue Array (Derwood, MD). After deparaffinization, antigen retrieval (pH 6.0) was performed for 10 min. The sections incubated in blocking buffer (10% normal goat serum and 5% BSA in TBS) at room temperature for 1 hr before incubating in either C2 or 3C2B1 in 1% BSA-TBS overnight at 4° C. In this particular assay, both antibodies were used at a concentration of 15 μg/mL. […]

[1] = molecular target: PSMGFR C-10 peptide (SEQ ID NO: 3) (Homo sapiens, UniProt P15941); assay: ELISA binding to PSMGFR C-10 peptide
Text: (§3) Cancer selective anti-MUC1* antibodies bind to a membrane proximal conformational epitope within the MUC1* extracellular domain, as described in WO 2020/146902.
(§4) The 3C2B1 epitope was mapped more precisely with additional PSMGFR peptide variants (FIGS. 2A, 2B).

[2] = system: H1975 lung cancer cells (H1975-wt); assay: Antibody internalization (pHrodo Deep Red), H1975-wt; type: cell-based, human; conditions: H1975-wt cells
Experimental: (§5) Antibodies C2 and 3C2B1 were tested for their ability to be internalized by H1975 lung cancer cells (H1975-wt) and H1975 cells that were engineered to express high levels of a recombinant MUC1* polypeptide with a 45 amino acid extracellular domain (H1975-MUC1*45). In contrast to the T47D breast cancer cells, H1975-wt cells internalized 3C2B1 faster than they internalized C2 (FIGS. 4A1-4A28, 4C1-4C28 and 4E). Two (2) hours post incubation with H1975-wt cells, […] the cells had internalized C2. […] Similar to the T47D cells, MUC1*45 expression increased the internalization rate of C2 and decreased the internalization rate of 3C2B1 (FIGS. 4B1-4B28, 4D1-4D28 and 4E).
(§6) Antibodies C2 and 3C2B1 were coupled to a pH sensitive fluorophore using the pHrodo Deep Red TFP Ester kit (Thermo cat #P35356), according to manufacturer instructions. Cancer cells were seeded at ˜50,000 cells/well onto μ-Slide 8-well tissue culture-treated, chambered coverslip wells (Ibidi 80806) in their recommended media with 10% FBS. Cells were cultured for 48 hours. Slides were transferred into microscope chamber (37° C.—5% CO2) and equilibrated for ˜30 minutes. The pHrodo Deep Red coupled antibody was then diluted to a concentration of 200 to 300 μg/mL into pre-warmed media supplemented with 10% FBS. Media was removed from the chamber slides and the diluted antibodies were separately added. Fluorescent (655 nm) and phase contrast images at were collected every 10 min for 12h or 16 h with a Leica Thunder Live Cell 3D microscope.
(§7) Internalization of the fluorescently labeled antibodies was quantified as follows. Images were imported into ImageJ. The selection tool was used to draw a region of interest (ROI) on the image. The integrated pixel density (mean gray-scale value×area) was then measured by the ImageJ software. Positively-stained cells were manually counted and the integrated pixel density was divided by the number of positive cells to yield “Pixel Intensity per positive cell”.

H1975-MUC1*45 cells = assay: Antibody internalization (pHrodo Deep Red), H1975-MUC1*45; type: cell-based, human
Experimental: as §5, §6, §7

breast cancer specimens = assay: IHC of tissue microarray, breast cancer; type: binding, human; conditions: 109 specimens, antibodies at 15 μg/mL
Text: as §1
Of the 109 breast cancer specimens, 56 stained positive with C2, 3C2B1, or both. Twenty-two (22) of the specimens stained robustly with C2 and stained less well or not at all with 3C2B1. The converse, 3C2B1 staining better than C2, was true in only 5 of the 109 specimens. Twenty-nine (29) specimens were stained essentially the same with C2 and 3C2B1 antibody.
as §2

[3] = molecular target: PSMGFR N-19 C-5 (SEQ ID NO: 159) (Homo sapiens, UniProt P15941); assay: Epitope mapping, binding to PSMGFR N-19 C-5 peptide
Text: FIG. 2B quantifies binding of the 3C2B1 anti-MUC1* antibody to the peptides of FIG. 2A.
as §4

[4] = molecular target: PSMGFR N-10 peptide (SEQ ID NO: 2) (Homo sapiens, UniProt P15941); assay: ELISA binding to PSMGFR N-10 peptide
Text: as §3, §4

PSMGFR N-10 peptide (SEQ ID NO: 2), sequence (P15941 1120-1154 limits assumed): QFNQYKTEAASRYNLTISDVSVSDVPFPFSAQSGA
PSMGFR N-19 C-5 (SEQ ID NO: 159), sequence (P15941 1129-1149 limits assumed): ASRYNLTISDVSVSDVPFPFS
PSMGFR C-10 peptide (SEQ ID NO: 3), sequence (P15941 1110-1144 limits assumed): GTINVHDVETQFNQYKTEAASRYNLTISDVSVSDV

B1: 3C2B1: anti-MUC1* monoclonal antibody that bound to the PSMGFR peptide (antibody, V domains shown)
VH: EVMLVESGGGLVKPGGSLKLSCAASGITFSTYTMSWVRQTPEKRLEWVATISTGGDKTYYSDSVKGRFTISRDNAKNNLYLQMSSLRSEDTALYYCARGTTAMYYYAMDYWGQGTSVTVSS
VL: DIVLTQSPASLAVSLGQRATISCRASKSISTSDYNYIHWYQQKPGQPPKLLIYLASNLESGVPARFSGSGSGTDFTLNIHPVEEEDAATYYCQHSRELPLTFGAGTKLELK
3C2B1 > C2 (number of specimens stained better with 3C2B1) (lung cancer specimens): 19 | binding to PSMGFR C-10 [1]: do not bind | internalization rate compared to C2 [2]: faster | time by which essentially all the cells had internalized the antibody [2]: ≤ 6 h | fraction of cells that had internalized antibody ([2]; 2 hours post incubation): about one third | fraction of cells that had internalized antibody ([2]; by 4 hours): more than a half | time by which essentially all the cells had internalized the antibody (H1975-MUC1*45 cells; H1975-MUC1*45 cells): 8 h | effect of MUC1*45 expression on internalization rate (H1975-MUC1*45 cells; H1975-MUC1*45 vs H1975-wt): decreased | 3C2B1 > C2 (number of specimens stained better with 3C2B1) (breast cancer specimens): 5 | binding to N-19 C-5 variant PSMGFR peptide [3]: bound | binding to PSMGFR N-10 [4]: bind
